Source: the DeepSol protein solubility set

Test: soluble on expression in E. coli; label from the status in PepcDB or PDB records

Row | Sequence | soluble on expression in E. coli
1 | MTDEQRSGSRRRGGALGGGRGGNSQNSGRKRSSNSPADSASSSQKTSRNPSQNRPPMNIVPQKVTILKRNQDSQPTSPINRNAPPGPLVAAVQPLMAVELGDSGASLKGWNSNPTTPEKTTINVAGRQAEANKKQTQEYYFSKNAGSAVSAQTFQETVQYPMSSFPLEKNVPIQIDNNFTLLITPTTSKCNGLFIKVKLQHGDDNITTGALLKLDADEKTIRKSCRETIENLLKAKSSSDRFPFSKCSEGFLTSCLIKKLVDRLEAFPEAIYYCEKCDYHINTIGHAKAHLESSTHFDDVKRQEQREHLLKIIPPPTEAHLESVEKVLEGTLKSYQQVRQNGIEIGETIIYYLSTTVFPSIGLQDVILRPFGSVTYDVTLPDSDYNVAYTMSIPEGTPIFALLEQVRKKIADDGHPADHSMEMGTPSTIIFTFKGVRVKLCWMSCFNHRIQLHFSELMKTYVNLREEVAQFLQLIRLWATKAGLDSKNKPRIGLPRYGFDIMAIHFLQQIGCLPVLHELFEAGPETEKIEEMSAEKTAKLQSEEAGQRRMRLMSRYEKNTEKIGTKFDLKKSWNLAELFIGFFRYYVERHRDVVIQITQLIPMSRDVSRWNKKILHVVDPFRGDNVLSIPKVSTWQPFFFNCLLTSFVSFSIPRTKNGPLIEVSFVHNKTIKPGKKFKDTPKKATVEAPIPLTQIMEEHYQEPVYEIVNDKDHLKYMKELKERLMIDGILVNERKPIDYHTDDHRECVYGRNSLLRFKRVLKPGLNGKMAASMDGLSFVTKKGKKFINRWKKANVIILSEDSSEIDEKTKAADSNVSEIAEKLEETLKISSQKNIDVAVTSMPVSTEIKPEPITKLSNEAPVKIKNVAQPQCDLIEAPQESLMNESMMESSFDETESPMKTPIVQKPVKQNATFGKSTISTVIPDKQFCSEEFFIKLNSNLKDIVSKSKSLKPSDFHYEFSTDLFCGDFEMEMKCTHCDGSHCVENCPMMEIPPIKKYQARTPEDLKDIDDMIDKYYHENILDERRLKMLDHKIDELQSFLRKNYREDVTLTTFGSVMTGLSVNCSDIDICLRFGDGDVPPKDLTAKEVIQKTESVLRKCHLVKRVQAIVTAKVPIVKFQVKLSNGAIIDVDISYYNILAIYNTALLKEYSLWTPDKRFAKLALFVKTWAKNCEIGDASRGSLSSYCHVIMLISYLQNCDPPVLPRLQEDFRSDNRERRLVDNWDTSFAQVETSLLQRWPKNKESCAQLLIGYFDYYSRFDFRNFVVQCRREMILSKMEKEWPRPLCVEDPFDLSHNLSSGVNKKMFVFIMKVFINSRAVFMSEKPPMNRDHTFLSSYQHQLLRKCNQGSAPTDRQCHQCHRIGHFVESCPQRALAKEARKRFGSNSTNSSYRSNDSGRGFKNGEEGGDRLTYHKRTYYHRSYNK | not soluble
2 | MRRSNEPTKRKSTTGHGDYAEHKKRKSMSKEATPVLEENLTPDVMINNLHEIVTQILENQELPETAIIELEGFDATAATMEEYMQKREETRKLVTDSEFFDQKTELNLSVASLAGAQVEVDKRVTTRGMSRKLHDECGINEKDILYQGLDYHGTESRVSKELRDSRQASIIESCVDFQKQIQWKIGIMEKVKAKSGRSYPMSDGPSVRTRGGQDKQREEMKKQQKELEKSKKQRKTRAAGEQDPFKTPQKKIEFNALDERRIIENYQLEVASEIRTHRPFLSRSIAPVPFNIDILDDEEEEMEIS | not soluble
3 | MLLRKGTVYVLVIRADLVNAMVAHARRDHPDEACGVLAGPEGSDRPERHIPMTNAERSPTFYRLDSGEQLKVWRAMEDADEVPVVIYHSHTATEAYPSRTDVKLATEPDAHYVLVSTRDPHRHELRSYRIVDGAVTEEPVNVVEQYLEHHHHHH | not soluble
4 | MLTERQLLIFRAIIDHFTWTIQPVGSKNLLKEKSLPYSSATIRNEMGVLEEYGFIEKTHSSSGRVPSEKGYRFYVDYLLQPKKLDKSDRQMIRSFFSENYYEMEGLIQNSALMLSDLTNYTSILLGPEATKNHLSGFRFVPINNFQAMLILITDQGHVDNHLVTIPEGTTLSDIERMVNILNERLVGLSLDDLKVQIPMEVKELLGKHVRNYESFMHVFSDSFAQASQQKVYFGGKTNILNQPEFHDINKVREMLHLMEEEQDVYELFRDIPDGLQVKIGRENNNSLMEDCSIITATYNIAGERVGGIVLLGPTRMEYSRMMGLVDVMSRDLTDVLTKLYRDNQN | not soluble
